Experimental findings from paper PMC9169624 are described below.

For data set [1], the target named is HELB (DNA helicase B) (Homo sapiens, UniProt Q8NG08 1-1087). As to the kind of experiment: PIFE fluorescence; EMSA: 2.5 nM DNA (5 nM in Fig. S1F); PIFE: 2 nM DNA for Kd; buffer, salt, pH and temperature not in the supplied material; optical tweezers at room temperature. The settings on record: protein: recombinant; label: 3'-Cy3; single strand. For orientation: In EMSA bound probe runs differently from free probe, usually more slowly.
Sequence of HELB (DNA helicase B) (Q8NG08 whole entry): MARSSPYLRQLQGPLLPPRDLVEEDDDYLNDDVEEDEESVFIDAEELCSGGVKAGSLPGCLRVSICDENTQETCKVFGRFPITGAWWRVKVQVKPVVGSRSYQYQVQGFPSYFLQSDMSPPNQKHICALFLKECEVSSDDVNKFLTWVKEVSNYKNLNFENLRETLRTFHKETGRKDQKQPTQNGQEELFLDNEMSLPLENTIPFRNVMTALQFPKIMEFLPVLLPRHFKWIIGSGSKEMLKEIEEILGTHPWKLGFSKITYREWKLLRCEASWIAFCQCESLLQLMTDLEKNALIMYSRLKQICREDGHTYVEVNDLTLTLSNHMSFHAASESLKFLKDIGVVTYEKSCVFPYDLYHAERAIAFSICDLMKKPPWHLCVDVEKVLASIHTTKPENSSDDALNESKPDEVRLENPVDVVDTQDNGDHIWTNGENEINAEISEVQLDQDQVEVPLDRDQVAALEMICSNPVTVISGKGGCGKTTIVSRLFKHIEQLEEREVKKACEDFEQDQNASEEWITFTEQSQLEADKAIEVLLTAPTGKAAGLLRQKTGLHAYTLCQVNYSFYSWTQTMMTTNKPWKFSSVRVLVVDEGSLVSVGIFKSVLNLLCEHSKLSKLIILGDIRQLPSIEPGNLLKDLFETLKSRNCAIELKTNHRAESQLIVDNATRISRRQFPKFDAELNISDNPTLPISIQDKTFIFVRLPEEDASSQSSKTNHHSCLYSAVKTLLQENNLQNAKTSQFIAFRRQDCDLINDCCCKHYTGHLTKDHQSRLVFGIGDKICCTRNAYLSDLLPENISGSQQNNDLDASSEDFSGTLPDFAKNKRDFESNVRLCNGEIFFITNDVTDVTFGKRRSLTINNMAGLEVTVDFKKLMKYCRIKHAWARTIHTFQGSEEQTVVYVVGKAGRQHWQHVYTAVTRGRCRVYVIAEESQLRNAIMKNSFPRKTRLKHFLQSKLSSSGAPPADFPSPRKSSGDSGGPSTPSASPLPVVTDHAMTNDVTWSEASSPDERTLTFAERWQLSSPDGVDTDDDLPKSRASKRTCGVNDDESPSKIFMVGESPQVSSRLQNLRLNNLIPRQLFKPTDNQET

The target of data set [2] is HELB (DNA helicase B);Human RPA (hRPA) (Homo sapiens;Homo sapiens, UniProt Q8NG08;P27694;P15927;P35244 1-1087;1-616;1-270;1-121, |). As to the kind of experiment: EMSA; HELB supershifts the human RPA-DNA complex; EMSA: 2.5 nM DNA (5 nM in Fig. S1F); PIFE: 2 nM DNA for Kd; buffer, salt, pH and temperature not in the supplied material; optical tweezers at room temperature. The note with it: protein: recombinant;recombinant; copies: 1;1;1;1; label: 5'-Cy5; single strand.
Sequence of HELB (DNA helicase B);Human RPA (hRPA) (Q8NG08 whole entry, chain 1 of 4): as the sequence (Q8NG08 whole entry) above
Sequence of HELB (DNA helicase B);Human RPA (hRPA) (P27694 whole entry, chain 2 of 4): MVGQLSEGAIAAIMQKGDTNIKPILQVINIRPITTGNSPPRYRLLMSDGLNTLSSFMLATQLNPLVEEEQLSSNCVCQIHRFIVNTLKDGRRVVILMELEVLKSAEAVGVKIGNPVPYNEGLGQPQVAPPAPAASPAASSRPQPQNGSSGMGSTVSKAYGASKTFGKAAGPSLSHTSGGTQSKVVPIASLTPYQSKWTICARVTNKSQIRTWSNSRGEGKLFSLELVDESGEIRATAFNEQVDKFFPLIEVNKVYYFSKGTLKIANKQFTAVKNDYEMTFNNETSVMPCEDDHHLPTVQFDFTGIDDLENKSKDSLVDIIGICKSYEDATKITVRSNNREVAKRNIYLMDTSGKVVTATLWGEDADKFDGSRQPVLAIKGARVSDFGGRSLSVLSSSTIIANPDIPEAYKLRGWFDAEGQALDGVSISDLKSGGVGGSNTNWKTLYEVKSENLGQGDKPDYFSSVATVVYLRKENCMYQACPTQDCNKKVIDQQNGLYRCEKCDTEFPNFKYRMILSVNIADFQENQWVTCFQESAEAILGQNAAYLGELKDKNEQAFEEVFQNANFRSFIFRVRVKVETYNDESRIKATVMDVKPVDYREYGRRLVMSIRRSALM
Sequence of HELB (DNA helicase B);Human RPA (hRPA) (P15927 whole entry, chain 3 of 4): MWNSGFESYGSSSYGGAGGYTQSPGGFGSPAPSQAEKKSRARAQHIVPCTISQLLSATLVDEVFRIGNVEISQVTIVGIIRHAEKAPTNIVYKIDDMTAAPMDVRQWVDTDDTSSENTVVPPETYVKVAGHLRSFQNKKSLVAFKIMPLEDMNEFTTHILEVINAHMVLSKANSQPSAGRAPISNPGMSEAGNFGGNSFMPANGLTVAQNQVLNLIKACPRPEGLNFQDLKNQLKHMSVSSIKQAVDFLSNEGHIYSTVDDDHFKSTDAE
Sequence of HELB (DNA helicase B);Human RPA (hRPA) (P35244 whole entry, chain 4 of 4): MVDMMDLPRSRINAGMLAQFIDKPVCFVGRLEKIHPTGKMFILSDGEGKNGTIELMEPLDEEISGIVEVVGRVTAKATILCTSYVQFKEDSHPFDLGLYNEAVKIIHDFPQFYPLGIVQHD

Data set [3] concerns the target Human RPA (hRPA) (Homo sapiens, UniProt P27694;P15927;P35244 1-616;1-270;1-121). As to the kind of experiment: EMSA; human RPA alone; EMSA: 2.5 nM DNA (5 nM in Fig. S1F); PIFE: 2 nM DNA for Kd; buffer, salt, pH and temperature not in the supplied material; optical tweezers at room temperature. The settings on record: protein: recombinant; copies: 1;1;1; label: 5'-Cy5; single strand.

Sequence of Human RPA (hRPA) (P27694 whole entry, chain 1 of 3): as the sequence (P27694 whole entry, chain 2 of 4) above
Sequence of Human RPA (hRPA) (P15927 whole entry, chain 2 of 3): as the sequence (P15927 whole entry, chain 3 of 4) above
Sequence of Human RPA (hRPA) (P35244 whole entry, chain 3 of 3): as the sequence (P35244 whole entry, chain 4 of 4) above

In general, Kd refers to a measure of binding affinity in units of concentration. With TTTTTTTTTTTTTTTTTTTTTTTTTTTTTT (ssDNA) [poly(dT) 30mer], the Kd in data set [1] is approximately 5 nM.

Consider GCTTGCTAGGACGGATCGCTCGAGG (ssDNA) [EMSA 25mer], for which the binding result in data set [2] and in data set [3] was “binds” each time.
